For one test, the target named is Synaptotagmin-II 8-61 (UniProt P29101). Briefly: ITC. Conditions: cited from earlier work.
The target in test [1] is T1, Syt-II_(40-60) peptide (amino acid residues 40-60 of the mouse synaptotagmin protein) (mouse).
T1 peptide: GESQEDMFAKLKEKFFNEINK
The experiment in a line: BLI; Octet Red; […]; 25 °C; PBS + 0.02% Tween 20, 1% BSA, 0.05% azide; […]. To be noted: one partner purified.

Test [2] concerns the target Synaptotagmin-II 40-60, P29101.

The source of these data is publication PMC5086636 (Toxins, 2016).

“And” between values parts separate entries of the source, which are not always exact repeats. Equal entries are not always repeated.

Chain of Synaptotagmin-II 40-60, P29101 (P29101 40-60): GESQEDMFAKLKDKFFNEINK
Chain of Synaptotagmin-II 8-61 (P29101 8-61): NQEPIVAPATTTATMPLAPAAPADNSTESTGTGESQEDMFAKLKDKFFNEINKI

For the molecule BoNT/B 858-1291 (from UniProt P10844), in the test with Synaptotagmin-II 8-61, the Kd (in general, a measure of binding affinity in units of concentration) was 34 nM.

B1: Botulinum neurotoxin type B (natural protein)
chain: MPVTINNFNYNDPIDNNNIIMMEPPFARGTGRYYKAFKITDRIWIIPERYTFGYKPEDFNKSSGIFNRDVCEYYDPDYLNTNDKKNIFLQTMIKLFNRIKSKPLGEKLLEMIINGIPYLGDRRVPLEEFNTNIASVTVNKLISNPGEVERKKGIFANLIIFGPGPVLNENETIDIGIQNHFASREGFGGIMQMKFCPEYVSVFNNVQENKGASIFNRRGYFSDPALILMHELIHVLHGLYGIKVDDLPIVPNEKKFFMQSTDAIQAEELYTFGGQDPSIITPSTDKSIYDKVLQNFRGIVDRLNKVLVCISDPNININIYKNKFKDKYKFVEDSEGKYSIDVESFDKLYKSLMFGFTETNIAENYKIKTRASYFSDSLPPVKIKNLLDNEIYTIEEGFNISDKDMEKEYRGQNKAINKQAYEEISKEHLAVYKIQMCKSVKAPGICIDVDNEDLFFIADKNSFSDDLSKNERIEYNTQSNYIENDFPINELILDTDLISKIELPSENTESLTDFNVDVPVYEKQPAIKKIFTDENTIFQYLYSQTFPLDIRDISLTSSFDDALLFSNKVYSFFSMDYIKTANKVVEAGLFAGWVKQIVNDFVIEANKSNTMDKIADISLIVPYIGLALNVGNETAKGNFENAFEIAGASILLEFIPELLIPVVGAFLLESYIDNKNKIIKTIDNALTKRNEKWSDMYGLIVAQWLSTVNTQFYTIKEGMYKALNYQAQALEEIIKYRYNIYSEKEKSNINIDFNDINSKLNEGINQAIDNINNFINGCSVSYLMKKMIPLAVEKLLDFDNTLKKNLLNYIDENKLYLIGSAEYEKSKVNKYLKTIMPFDLSIYTNDTILIEMFNKYNSEILNNIILNLRYKDNNLIDLSGYGAKVEVYDGVELNDKNQFKLTSSANSKIRVTQNQNIIFNSVFLDFSVSFWIRIPKYKNDGIQNYIHNEYTIINCMKNNSGWKISIRGNRIIWTLIDINGKTKSVFFEYNIREDISEYINRWFFVTITNNLNNAKIYINGKLESNTDIKDIREVIANGEIIFKLDGDIDRTQFIWMKYFSIFNTELSQSNIEERYKIQSYSEYLKDFWGNPLMYNKEYYMFNAGNKNSYIKLKKDSPVGEILTRSKYNQNSKYINYRDLYIGEKFIIRRKSNSQSINDDIVRKEDYIYLDFFNLNQEWRVYTYKYFKKEEEKLFLAPISDSDEFYNTIQIKEYDEQPTYSCQLLFKKDEESTDEIGLIGIHRFYESGIVFEEYKDYFCISKWYLKEVKRKPYNLKLGCNWQFIPKDEGWTE
For the molecule B1, in test [1], the “KD of the first, rapid step (2:1 heterogeneous ligand model)” value amounted to 90 nM and the “KD of the second, slow step (2:1 heterogeneous ligand model)” value turned out to be 20 nM.

B2: BoNT/B, P10844 (protein)
chain: PVTINNFNYNDPIDNNNIIMMEPPFARGTGRYYKAFKITDRIWIIPERYTFGYKPEDFNKSSGIFNRDVCEYYDPDYLNTNDKKNIFLQTMIKLFNRIKSKPLGEKLLEMIINGIPYLGDRRVPLEEFNTNIASVTVNKLISNPGEVERKKGIFANLIIFGPGPVLNENETIDIGIQNHFASREGFGGIMQMKFCPEYVSVFNNVQENKGASIFNRRGYFSDPALILMHELIHVLHGLYGIKVDDLPIVPNEKKFFMQSTDAIQAEELYTFGGQDPSIITPSTDKSIYDKVLQNFRGIVDRLNKVLVCISDPNININIYKNKFKDKYKFVEDSEGKYSIDVESFDKLYKSLMFGFTETNIAENYKIKTRASYFSDSLPPVKIKNLLDNEIYTIEEGFNISDKDMEKEYRGQNKAINKQAYEEISKEHLAVYKIQMCKSVKAPGICIDVDNEDLFFIADKNSFSDDLSKNERIEYNTQSNYIENDFPINELILDTDLISKIELPSENTESLTDFNVDVPVYEKQPAIKKIFTDENTIFQYLYSQTFPLDIRDISLTSSFDDALLFSNKVYSFFSMDYIKTANKVVEAGLFAGWVKQIVNDFVIEANKSNTMDKIADISLIVPYIGLALNVGNETAKGNFENAFEIAGASILLEFIPELLIPVVGAFLLESYIDNKNKIIKTIDNALTKRNEKWSDMYGLIVAQWLSTVNTQFYTIKEGMYKALNYQAQALEEIIKYRYNIYSEKEKSNINIDFNDINSKLNEGINQAIDNINNFINGCSVSYLMKKMIPLAVEKLLDFDNTLKKNLLNYIDENKLYLIGSAEYEKSKVNKYLKTIMPFDLSIYTNDTILIEMFNKYNSEILNNIILNLRYKDNNLIDLSGYGAKVEVYDGVELNDKNQFKLTSSANSKIRVTQNQNIIFNSVFLDFSVSFWIRIPKYKNDGIQNYIHNEYTIINCMKNNSGWKISIRGNRIIWTLIDINGKTKSVFFEYNIREDISEYINRWFFVTITNNLNNAKIYINGKLESNTDIKDIREVIANGEIIFKLDGDIDRTQFIWMKYFSIFNTELSQSNIEERYKIQSYSEYLKDFWGNPLMYNKEYYMFNAGNKNSYIKLKKDSPVGEILTRSKYNQNSKYINYRDLYIGEKFIIRRKSNSQSINDDIVRKEDYIYLDFFNLNQEWRVYTYKYFKKEEEKLFLAPISDSDEFYNTIQIKEYDEQPTYSCQLLFKKDEESTDEIGLIGIHRFYESGIVFEEYKDYFCISKWYLKEVKRKPYNLKLGCNWQFIPKDEGWTE
Consider B2, for which, in test [2], the Kd is 20 nM and 90 nM.
